The values that follow come from PMC10140725 (Scientific Reports, 2023).

Test [1] addresses hemagglutinin (HA) of H1N1 influenza A strain A/Almaty/32/1998, mature HA1/HA2 trimer (Influenza A virus H1N1, strain A/Almaty/32/1998). The experiment in a line: crystal structure.
For test [2], the target named is hemagglutinin (HA) of H1N1 influenza A strain A/Jiangsu/ALS1/2011, mature HA1/HA2 trimer (Influenza A virus H1N1, strain A/Jiangsu/ALS1/2011). Kind of test: crystal structure.

What is called stoichiometry N is the number of molecules, sites or subunits per partner or assembly. “hemagglutinin (HA) of H1N1 influenza A strain A/Almaty/32/1998, mature HA1/HA2 trimer (natural protein)” displayed a stoichiometry N in test [1] of 3.

On to “hemagglutinin (HA) of H1N1 influenza A strain A/Jiangsu/ALS1/2011, mature HA1/HA2 trimer (natural protein)”, for which the stoichiometry N in test [2] stood at 3.
